Substitutions are numbered along the chain they refer to.
B1: ePGDM13 (antibody, V domains shown)
VH: QAQLVQSGPEVRKPGTSVKVSCKNPGNTLTTYDLHWVRQVPGQGLQWMGWISHEGDKKVIVERFKAKVTIDWDRSTNTAYLQLSGLTSEDTAVYYCAKGSKHRLRDYALYDEDGALNWAVDVDYLANLEFWGQGTAVTVSS
VL: DIVLTQSPLSLSVTPGESASISCKSSHSLQHGDRNNYLAWYVQKPGRSPQLLLDLASERASGVPDRFSGSGSEKDFTLKISRVETEDVGTYYCMQGRESPWTFGQGTKVDIK
B2: ePGDM9 (antibody, V domains shown)
VH: B1 VH
VL: B1 VL with H27Q, Q30I, L53I, E73R
B3: PGDM1400 (antibody, V domains shown)
VH: B1 VH with A2V, Q3H, V5T, N24A, T30K, Q39S, E89G, E112D, A126S
VL: B1 VL with I2F, L9H, Q30I, L53I, D54Y, E58S, E73D
B4: ePGDM5 (antibody, V domains shown)
VH: B1 VH
VL: B1 VL with I2F, S26D, L53I, E73R, S81D, T85A

Target: HIV Env of isolate CNE53 (clade BC) (HIV)
Test: cell-based or functional assay

Binder | IC50 (µg/ml) with constrains [µg/mL]
B1 | 0.015
B2 | 0.007
B3 | 0.026
B4 | 0.02

Target: HIV Env of isolate C4118.c09 (clade AE) (HIV)
Test: cell-based or functional assay

Binder | IC50 (µg/ml) with constrains [µg/mL] | IC80 (µg/ml) with constrains [µg/mL]
B1 | 0.001 | 0.005
B2 | 0.001 | 0.005
B3 | 0.002 | 0.006
B4 |  | 0.002

Target: HIV Env of isolate Du172.17 (clade C) (HIV)
Test: cell-based or functional assay

Binder | IC50 (µg/ml) with constrains [µg/mL]
B1 | 1.5
B2 | 0.865
B3 | 5.42
B4 | 1.49

Target: HIV Env of isolate X1254_C3 (clade G) (HIV)
Test: cell-based or functional assay

Binder | IC50 (µg/ml) with constrains [µg/mL]
B1 | 0.518
B2 | 0.178
B3 | 45.4
B4 | 0.217

Target: HIV Env of isolate REJO4541.67 (clade B) (HIV)
Test: cell-based or functional assay

Binder | IC50 (µg/ml) with constrains [µg/mL]
B1 | 0.002
B2 | 0.001
B3 | 0.004
B4 | 0.001

Target: HIV Env of isolate CNE19 (clade BC) (HIV)
Test: cell-based or functional assay

Binder | IC50 (µg/ml) with constrains [µg/mL]
B1 | 0.003
B2 | 0.003
B3 | 0.005
B4 | 0.003

Target: HIV Env of isolate 1054_07_TC4_1499 (clade B) (HIV)
Test: cell-based or functional assay

Binder | IC50 (µg/ml) with constrains [µg/mL]
B1 | > 100
B2 | > 100
B3 | > 100
B4 | > 100

Target: HIV Env of isolate 3301.v1.c24 (clade AC) (HIV)
Test: cell-based or functional assay

Binder | IC50 (µg/ml) with constrains [µg/mL] | IC80 (µg/ml) with constrains [µg/mL]
B1 | 0.057 | 0.228
B2 | 0.021 | 0.084
B3 | 0.131 | 0.523
B4 | 0.043 | 0.174

Target: HIV Env of isolate 6041.v3.c23 (clade AC) (HIV)
Test: cell-based or functional assay

Binder | IC50 (µg/ml) with constrains [µg/mL] | IC80 (µg/ml) with constrains [µg/mL]
B1 | 0.007 | 0.029
B2 | 0.002 | 0.007
B3 | 0.016 | 0.064
B4 | 0.005 | 0.021

Target: HIV Env of isolate 6240_08_TA5_4622 (clade B) (HIV)
Test: cell-based or functional assay

Binder | IC50 (µg/ml) with constrains [µg/mL]
B1 | 3.16
B2 | 1.65
B3 | 52.4
B4 | 2.02

Target: HIV Env of isolate ZM197M.PB7 (clade C) (HIV)
Test: cell-based or functional assay

Binder | IC50 (µg/ml) with constrains [µg/mL]
B1 | 0.06
B2 | 0.023
B3 | 0.071
B4 | 0.035

Target: HIV Env of isolate 0815.v3.c3 (clade ACD) (HIV)
Test: cell-based or functional assay

Binder | IC50 (µg/ml) with constrains [µg/mL] | IC80 (µg/ml) with constrains [µg/mL]
B1 | > 100 | > 100
B2 | > 100 | > 100
B3 | > 100 | > 100
B4 | > 100 | > 100

Target: HIV Env of isolate QH0692.42 (clade B) (HIV)
Test: cell-based or functional assay

Binder | IC50 (µg/ml) with constrains [µg/mL]
B1 | > 100
B2 | > 100
B3 | > 100
B4 | > 100

Target: HIV Env of isolate Ce2060_G9 (clade C) (HIV)
Test: cell-based or functional assay

Binder | IC50 (µg/ml) with constrains [µg/mL]
B1 | 0.018
B2 | 0.134
B3 | 0.025
B4 | 0.011

Target: HIV Env of isolate BJOX028000.10.3 (clade AE) (HIV)
Test: cell-based or functional assay

Binder | IC50 (µg/ml) with constrains [µg/mL] | IC80 (µg/ml) with constrains [µg/mL]
B1 | 0.035 | 0.139
B2 | 0.019 | 0.078
B3 | 0.121 | 0.483
B4 | 0.021 | 0.086

Target: HIV Env of isolate R3265.c06 (clade AE) (HIV)
Test: cell-based or functional assay

Binder | IC50 (µg/ml) with constrains [µg/mL] | IC80 (µg/ml) with constrains [µg/mL]
B1 | 0.026 | 0.104
B2 | 0.019 | 0.078
B3 | 0.019 | 0.075
B4 | 0.028 | 0.113

Target: HIV Env of isolate CNE30 (clade BC) (HIV)
Test: cell-based or functional assay

Binder | IC50 (µg/ml) with constrains [µg/mL]
B1 | > 100
B2 | > 100
B3 | > 100
B4 | > 100

Target: HIV Env of isolate 7030102001E5(Rev-) (clade C) (HIV)
Test: cell-based or functional assay

Binder | IC50 (µg/ml) with constrains [µg/mL]
B1 | > 100
B2 | > 100
B3 | > 100
B4 | > 100

Target: HIV Env of isolate 3103.v3.c10 (clade ACD) (HIV)
Test: cell-based or functional assay

Binder | IC50 (µg/ml) with constrains [µg/mL] | IC80 (µg/ml) with constrains [µg/mL]
B1 | 0.09 | 0.36
B2 | 0.073 | 0.29
B3 | 0.223 | 0.892
B4 | 0.063 | 0.254

Target: HIV Env of isolate WITO4160.33 (clade B) (HIV)
Test: cell-based or functional assay

Binder | IC50 (µg/ml) with constrains [µg/mL]
B1 | 0.003
B2 | 0.002
B3 | 0.003
B4 | 0.004

From patent publication US20230134571A1 (INTERNATIONAL AIDS VACCINE INITIATIVE, published 2023)
